# “Also recorded” adds a separate entry of the source.
# T1: BMP-2 (Homo sapiens, UniProt P12643)
# T1 sequence (P12643 283-396): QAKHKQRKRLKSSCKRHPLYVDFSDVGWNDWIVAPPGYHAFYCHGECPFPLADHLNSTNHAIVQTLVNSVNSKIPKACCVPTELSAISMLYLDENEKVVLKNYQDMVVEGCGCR
# How the values were obtained:
# [1] = molecular target: T1, BMP-2; assay: BMP-2 competitive ELISA; type: binding; conditions: 1.5 ng/ml BMP-2 with increasing concentrations of protein
# Method: In order to carry out the BMP-2-competitive ELISA, the Duo Set BMP-2 ELISA kit by R&D Systems is used.
# The Duo Set BMP-2 ELISA kit from R&D Systems was used. […] After 1 h incubation at RT and extensive washing, the detection antibody was added according to the manufacturer's protocol and the amount of BMP-2 was quantified. This experiment was performed at least three independent times.
# [2] = tested on: BMP-2-induced heterotopic ossification; assay: BMP-2-induced heterotopic ossification (HO) mouse model; type: in vivo, mice; conditions: for Heterotopic ossification (bone volume by μCT): after two weeks
# Method: Male and female C57BL/6 mice are used for the HO model. The HO is triggered by injecting BMP-2 into the muscle (Wosczyna et al. 2012).
# All the mice are fed with standard feed and water ad libitum and are kept in groups of five mice per cage. The mice are exposed to a 12-hour light/dark cycle and air cooling to 23° C. (no special pathogen-free room). Enrichment is provided in the form of cardboard houses and bedding material. The mice are randomly divided into the different treatment groups and the assays are subsequently carried out as blind experiments.
# The HO is examined by means of treatment using 2.5 μl of a 1 mg/ml recombinant BMP-2 solution (Thermo Fisher Scientific) or 2.5 μl of a 1 mg/ml Tfr2-ECD mixed with 47.5 μl Matrigel (BD Bioscience) at 0° C. For combination treatment, 2.5 of a 1 mg/ml recombinant BMP-2 solution is mixed with 2.5 μl of a 1 mg/ml Tfr2-ECD and 45 μl Matrigel. The Matrigel mixtures are injected into the musculus tibialis anterior of 10-week-old female wild-type mice. The legs are examined after two weeks.
# The bone microarchitecture is analyzed using vivaCT40 (Scanco Medical, Switzerland). The entire lower leg bones are measured at a resolution of 10.5 μm using X-rays of 70 kVp, […] and at an integration time of 200 s. Predefined scripts from Scanco are used to analyze the bone (#1).
# Heterotopic ossification (HO): The HO model was performed according to Wosczyna et al^32. Briefly, 2.5 μl of 1 mg/ml recombinant BMP-2 (Thermo Fisher) or 2.5 μl of 1 mg/ml Tfr2-ECD were mixed with 47.5 μl matrigel (BD Bioscience) on ice. For the local combination treatment, 2.5 μl BMP-2 were mixed with 2.5 μl Tfr2-ECD and 45 μl matrigel. The matrigel-mixtures were injected into the midbelly of the tibialis anterior muscle of 10-week-old female WT and Tfr2-deficient mice. Some mice were treated daily with palovarotene through oral gavage using a previously published protocol^58. Palovarotene (Hycultec) was dissolved in DMSO and diluted 1:4 with corn oil. Mice received palovarotene at a dose of 100 μg/mouse for the first five days and 50 μg/mouse for the remainder of the experiment (days 6-14). Two weeks after BMP-2 injection, the legs were harvested for analysis. This experiment was performed three times with 3-11 mice per group. To analyze the chondrogenic phase of HO, we performed an experiment as described above that was terminated on day 8. This was performed once with 4-6 mice per group.
# For systemic Tfr2-ECD treatment, WT mice were treated every other day with Tfr2-ECD intraperitoneally for two weeks. Mice received 250 μg Tfr2-ECD (10 mg/kg BW) per injection for the first 10 days after BMP-2/matrigel injection into the muscle and 125 μg per injection (5 mg/kg BW) for the remaining time. This experiment was performed once with 8-10 mice per group. Drop-weight HO: This experiment was performed according to Liu et al. with minor modifications^65. Female 10-12-week-old WT mice were anesthetized and placed on a ridge of a plastic container over which the right leg was bent so the femur was lying horizontally. Mice received an injection of 1 μg BMP-2 mixed in 50 μl matrigel. Afterwards, a stainless-steel ball of 16 g (16 mm diameter) was dropped from a distance of 80 cm height onto the quadriceps muscle. Mice either received a single dose of 1 μg Tfr2-ECD, which was co-injected with the BMP-2/matrigel mixture, or palovarotene (Hycultec), which was administered daily by oral gavage. Palovarotene was dissolved in DMSO and diluted 1:4 with corn oil. […]
# [3] = WT mice, day 8, systemic treatment, Safranin O staining
molecule,measurement,setting,value
"Tfr2-ECD: Recombinant full-length extracellular domain (aa 103-798) of murine Tfr2, His-tagged, expressed in Sf9 insect cells (protein, listed as Mus musculus, His tag, Recombinant full-length extracellular domain (aa 103-798) of murine Tfr2, His-tagged, expressed in Sf9 insect cells) RGSCQACGDSVLVVDEDVNPEDSGRTTLYWSDLQAMFLRFLGEGRMEDTIRLTSLRERVAGSARMATLVQDILDKLSRQKLDHVWTDTHYVGLQFPDPAHANTLHWVDADGSVQEQLPLEDPEVYCPYSATGNATGKLVYAHYGRSEDLQDLKAKGVELAGSLLLVRVGITSFAQKVAVAQDFGAQGVLIYPDPSDFSQDPHKPGLSSHQAVYGHVHLGTGDPYTPGFPSFNQTQFPPVESSGLPSIPAQPISADIADQLLRKLTGPVAPQEWKGHLSGSPYRLGPGPDLRLVVNNHRVSTPISNIFACIEGFAEPDHYVVIGAQRDAWGPGAAKSAVGTAILLELVRTFSSMVSNGFRPRRSLLFISWDGGDFGSVGATEWLEGYLSVLHLKAVVYVSLDNSVLGDGKFHAKTSPLLVSLIENILKQVDSPNHSGQTLYEQVALTHPSWDAEVIQPLPMDSSAYSFTAFAGVPAVEFSFMEDDRVYPFLHTKEDTYENLHKMLRGRLPAVVQAVAQLAGQLLIRLSHDHLLPLDFGRYGDVVLRHIGNLNEFSGDLKERGLTLQWVYSARGDYIRAAEKLRKEIYSSERNDERLMRMYNVRIMRVEFYFLSQYVSPADSPFRHIFLGQGDHTLGALVDHLRMLRADGSGAASSRLTAGLGFQESRFRRQLALLTWTLQGAANALSGDVWNIDNNF",BMP-2 binding: signal of the BMP-2 detection antibody,[1],verified
same,BMP-2 binding: signal of the BMP-2 detection antibody,[1]; listed as protein according to the invention,signal of the BMP-2 detection antibody reduced
same,Heterotopic ossification (bone volume by μCT),"[2]; Tfr2-/- mice, co-application of Tfr2-ECD with BMP-2",significantly inhibited
same,Number of chondrocytes (chondrogenic phase of HO),[2]; [3],suppressed
same,Production of cartilage (chondrogenic phase of HO),[2]; [3],suppressed
same,Heterotopic ossification (bone volume by μCT),"[2]; WT mice, local Tfr2-ECD co-injected with BMP-2 into the muscle",significant reduction in bone formation; also recorded: completely abrogated; also recorded: reduced; also recorded: inhibited
same,Heterotopic ossification (bone volume by μCT),"[2]; WT mice, systemic treatment, i.p. injections every other day",reduced; also recorded: inhibited

# — patent US20240199755A1, “ANTAGONISTS AND AGONISTS OF THE TRANSFERRIN RECEPTOR-2 FOR USE IN THE TREATMENT OF DISEASES OF THE BONE” (Kymab Limited, priority 2018, published 2024)
